Reference: publication PMC8705320

Tests used:
papain = papain (UniProt P00784)
[1] = target: human cathepsin L (human) (UniProt P07711); experiment: enzyme inhibition kinetics (Dixon plot); cathepsin L 0.4 nM; Cystatin-Hv 8, 16 and 24 nM; Z-FR-AMC substrate at 1 Km and 2 Km; 50 mM sodium phosphate, 200 mM NaCl, 5 mM EDTA, pH 5.5, 6 mM DTT preactivation; 37 °C; fluorescence read each minute for 15 min

UniProt P00784, sequence (P00784 134-345): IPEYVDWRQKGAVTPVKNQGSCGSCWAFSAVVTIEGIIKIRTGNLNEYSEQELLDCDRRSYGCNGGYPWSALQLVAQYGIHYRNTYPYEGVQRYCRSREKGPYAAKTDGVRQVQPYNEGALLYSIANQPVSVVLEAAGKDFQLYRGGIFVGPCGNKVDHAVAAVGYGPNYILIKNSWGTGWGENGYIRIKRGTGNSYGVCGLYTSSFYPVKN

Cystatin-Hv (recombinant cystatin of the leech Haementeria vizottoi) (natural protein)
IC50 of inhibition of papain activity (papain 21.4 nmol/L or 50 ng, 5 µM Z-FR-MCA substrate; 1, 5, 10 and 15 µg of pool 2 from ion-exchange chromatography) (papain): 120 nM | Ki [1]: 7.9 nM
